Entries after “also recorded” stand apart in the source; their conditions may differ.

Data set [1] in a line: Plasminogen level (ELISA) and plasmin activity (enzyme substrate method) in brain homogenate of LPS-treated SOD1-G93A mice. The format is in vivo, mouse. Particulars: LPS 5 mg/kg intratracheal, 50 mg/kg tail vein single dose, 6 hours, vs vehicle group. How it is done:
Eight 22-week-age SOD1-G93A mice were randomly divided into two groups: a vehicle group and a plasminogen group, with 4 mice in each group. 2.5 mg/mL bacterial lipopolysaccharide (LPS) (Beijing Solebow Technology Co., Ltd., L8880) was administered to the mice in the vehicle group and the plasminogen group via intratracheal instillation, with a modeling dose of 5 mg/kg. Four C57 mice of the same age were selected as normal control mice. Administration began 3 days after LPS treatment. […] The mice were killed 6 hours after the single administration, and the brain tissues were obtained. After homogenization, the plasminogen level was detected by ELISA, and the plasmin activity was detected by enzyme substrate method.

Data set [2] in a line: Plasmin activity in brain tissue of MPTP/LPS Parkinson's model mice (enzyme substrate kinetic method). The data set is classed as in vivo, mouse. To be noted: MPTP + LPS Parkinson's model mice, 50 mg/kg tail vein single dose, 2 hours, vs vehicle group, P<0.05. As for the experimental part:
Fifteen female mice were taken to weigh before modeling. […] All mice in the model group were intraperitoneally injected with 5 mg/mL MPTP solution at 35 mg/kg/mouse, and the mice in the blank control group were intraperitoneally injected with 7 mL/kg normal saline. The modeling time was set at 9 am every day, and the injections were continued for 5 days. 24 hours after the last MPTP injection, all mice were weighed and injected intraperitoneally with 5 mg/kg LPS solution. […] The plasmin activity in brain tissue homogenate was detected by enzyme substrate kinetic method. […] 85 μL/well of seven different concentrations of standard solution, blank, and sample were added to the ELISA plate in sequence, and then 15 μL of 20 mM S-2251 solution (Chromogenix, 82033239) was added to each well to incubate at 37° C. Starting from 0 min of reaction, the A405 absorbance value was read in a multifunctional microplate reader every 5 min until the reaction time was 90 min. All reactions were fitted with a straight line by time and absorbance, and the slope of the straight line was the reaction rate of the standard/sample (ΔA405/min). Finally, the potency value of the standard substance and ΔA405/min were used to create a standard curve to calculate the potency of the measured samples.

Data set [3] is described as follows: Human plasminogen level in nuclei of brain, spinal cord and kidney tissue of SOD1-G93A mice (ELISA). The format is in vivo, mouse. Particulars: 50 mg/kg tail vein every day, 7 days, vs vehicle group, P<0.001. As for the experimental part:
Ten 9-week-age SOD1-G93A mice were randomly divided into two groups: a vehicle group and a plasminogen group, with 5 mice in each group. Five C57 mice of the same week-age were selected as normal control mice. […] The vehicle and plasminogen were administered continuously for 7 days. The mice were killed 7 days later, and brain, spinal cord and kidney tissues were collected. The tissue was cut into small pieces to digest with 0.25% trypsin (Beyotime Biotechnology, C0201-500 mL), then filtering with a 200-mesh cell sieve to obtain a single cell suspension. […] The extracted nuclear protein was tested for human plasminogen level by ELISA.
In general terms: In an ELISA, binding on a coated surface is turned into a signal by an enzyme label.

Data set [4] can be described thus: Spinal cord tissue plasminogen level after tail vein injection in SOD1-G93A mice (ELISA). The format is in vivo, mouse.
Description: Spinal cord tissue was obtained from the mice sacrificed in Example 11, homogenizing and detecting according to the instructions of Human Plasminogen ELISA Kit (manufacturer: AssayMax, catalog number: EP1200-1). The human plasminogen working standard in the kit was used as the internal standard to calibrate the concentration of each sample. The calibrated concentration was divided by the total protein concentration to calculate the amount of plasminogen per unit of total protein in each sample and perform statistical analysis.
Another data set deals with TDP-43 (Mus musculus, UniProt Q921F2). Description: Immunofluorescence co-localization staining of plasminogen and TDP-43 in gluteal muscle tissue of SOD1-G93A mice. The format is in vivo. Details: from tissue; host or cells: mouse spinal cord, gluteal muscle, brain, kidney cell nuclei. Particulars: 1 mg/mouse tail vein every day. As for the experimental part: Five wild-type male mice and nine male SOD1-G93A mice of similar week-age were selected. Wild-type mice served as the blank control group, and SOD1-G93A mice were observed and recorded from the time of hind leg tremor when they became ill at week 14, and the onset time of each mouse was recorded. Administering to mice 14 days after the onset of the disease. All mice were randomly divided into a vehicle group and a plasminogen administration group according to the onset of the disease: 5 mice in the vehicle group, which were injected with 0.1 ml of vehicle (sodium citrate buffer)/mouse by tail vein every day; 4 mice in the plasminogen administration group, which were injected with 1 mg of plasminogen/0.1 ml of vehicle/mouse by tail vein every day. The vehicle and plasminogen were administered continuously under SPF environment, and the samples were collected at the near-death stage. The longest administration was 61 days. The gluteal muscle tissue collected was fixed in formalin fixative solution. The fixed tissues were dehydrated with gradient alcohol and transparentized with xylene before being embedded in paraffin. The thickness of tissue sections was 3 μm, and the sections were dewaxed and rehydrated and then washed once. The sections were immersed in antigen retrieval working solution (0.01 M sodium citrate buffer) to perform microwave retrieval: preheating for 5 minutes, high heating for 2 minutes, and low heating for 15 minutes. […] The green fluorescence color development of the corresponding anti-plasminogen secondary antibody was performed according to the instructions of the XTSA520 IHC kit (Alpha X Biotech, AXT6202500), washing 3 times with PBS for 5 minutes each time. […] The red fluorescence color development of the corresponding anti-TDP-43 secondary antibody was performed according to the instructions of the XTSA620 IHC kit (Alpha X Biotech, AXT6502500), washing 3 times with PBS for 5 minutes each time. […]
Sequence of TDP-43 (Q921F2 whole entry): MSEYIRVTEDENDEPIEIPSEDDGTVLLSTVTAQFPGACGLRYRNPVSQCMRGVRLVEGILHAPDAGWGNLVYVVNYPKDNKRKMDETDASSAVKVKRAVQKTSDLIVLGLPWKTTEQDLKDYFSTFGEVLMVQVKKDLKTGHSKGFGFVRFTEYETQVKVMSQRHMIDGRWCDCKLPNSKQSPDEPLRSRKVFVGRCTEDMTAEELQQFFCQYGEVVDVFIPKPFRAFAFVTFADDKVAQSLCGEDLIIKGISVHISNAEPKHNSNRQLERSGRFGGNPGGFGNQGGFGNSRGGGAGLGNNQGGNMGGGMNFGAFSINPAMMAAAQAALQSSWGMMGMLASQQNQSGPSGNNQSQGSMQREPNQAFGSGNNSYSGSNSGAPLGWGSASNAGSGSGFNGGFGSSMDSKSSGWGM

B1: plasminogen: human plasminogen purified from human donor plasma, in which human Lys-plasminogen and Glu-plasminogen are >98% (protein)
chain: KVYLSECKTGNGKNYRGTMSKTKNGITCQKWSSTSPHRPRFSPATHPSEGLEENYCRNPDNDPQGPWCYTTDPEKRYDYCDILECEEECMHCSGENYDGKISKTMSGLECQAWDSQSPHAHGYIPSKFPNKNLKKNYCRNPDRELRPWCFTTDPNKRWELCDIPRCTTPPPSSGPTYQCLKGTGENYRGNVAVTVSGHTCQHWSAQTPHTHNRTPENFPCKNLDENYCRNPDGKRAPWCHTTNSQVRWEYCKIPSCDSSPVSTEQLAPTAPPELTPVVQDCYHGDGQSYRGTSSTTTTGKKCQSWSSMTPHRHQKTPENYPNAGLTMNYCRNPDADKGPWCFTTDPSVRWEYCNLKKCSGTEASVVAPPPVVLLPDVETPSEEDCMFGNGKGYRGKRATTVTGTPCQDWAAQEPHRHSIFTPETNPRAGLEKNYCRNPDGDVGGPWCYTTNPRKLYDYCDVPQCAAPSFDCGKPQVEPKKCPGRVVGGCVAHPHSWPWQVSLRTRFGMHFCGGTLISPEWVLTAAHCLEKSPRPSSYKVILGAHQEVNLEPHVQEIEVSRLFLEPTRKDIALLKLSSPAVITDKVIPACLPSPNYVVADRTECFITGWGETQGTFGAGLLKEAQLPVIENKVCNRYEFLNGRVQSTELCAGHLAGGTDSCQGDSGGPLVCFEKDKYILQGVTSWGLGCARPNKPGVYVRVSRFVTWIEGVMRNN
With B1, in data set [1], the “plasmin activity in brain tissue homogenate” value is listed as “significantly higher” and the “plasminogen level in brain tissue homogenate” value is given as “significantly higher”. Also, the “level of plasmin activity in the brain tissue” value in data set [2] is recorded as “significantly higher”. In data set [3], the “level of human plasminogen in the nuclei of brain tissue” value is listed as “significantly higher”, the “level of human plasminogen in the nuclei of kidney tissue” value is reported as “significantly higher” and the “level of human plasminogen in the nuclei of spinal cord tissue” value is given as “significantly higher”. In addition, the “plasminogen level in the spinal cord, 50 mg/kg group compared with 6 mg/kg group” value in data set [4] (tail vein) was “significantly higher”. In data set [4] (tail vein 50 mg/kg and 6 mg/kg), the “time within which plasminogen is almost completely metabolized (spinal cord)” value was in the range of 12 to 24 h. The “plasminogen level in the spinal cord” value in data set [4] (tail vein injection of 6 mg/kg) is given as “increase significantly”. For the same molecule, in data set [4] (tail vein injection of 50 mg/kg), the “plasminogen level in the spinal cord” value is given as “increase significantly”. Further, in the data set with TDP-43, the “co-localization of plasminogen with TDP-43 in muscle tissue (cytoplasm and nucleus)” value is “co-localizes with TDP-43”; the “subcellular presence of plasminogen in muscle tissue” value was “present in the cytoplasm (as indicated by Δ) and in the nucleus; also recorded: present in the cytoplasm (as indicated by Δ) and the nucleus”. Also, the “positive staining of plasminogen in muscle tissue” value with TDP-43 (up to 61 days, vs vehicle group) is recorded as “significantly more”.

Source of the values: patent US20260166131A1, “METHOD FOR PROMOTING PATHOLOGICAL TDP-43 PROTEIN DEGRADATION, AND DRUG” (TALENGEN INTERNATIONAL LIMITED, priority 2022, published 2026).
